Data as given in PMC6101569.

Tests used:
[1] = target: APLF^AD labelled with the fluorescent tag NT-647 (human) (UniProt Q8IW19); experiment: MST
[2] = target: APLF acidic domain (APLF^AD), Homo sapiens APLF residues 450-511, wild type (human) (UniProt Q8IW19); experiment: cross-linking
APLF acidic domain (APLF^AD), Homo sapiens APLF residues 450-511, wild type (human), sequence (Q8IW19 450-511): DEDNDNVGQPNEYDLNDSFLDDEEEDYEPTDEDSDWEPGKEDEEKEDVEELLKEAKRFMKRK

APLF^AD labelled with the fluorescent tag NT-647 (human), sequence (Q8IW19 450-511): as above

| KD of the secondary binding over KD of the high-affinity binding (fold) [1] | KD,1 (high-affinity binding event, sequential-binding model) [1] | stoichiometry N [2] | Substance |
| --- | --- | --- | --- |
| 50 fold | 1400 nM | – | (H3-H4)2 histone tetramer from Drosophila melanogaster (from UniProt P02299 2-136; P84040 2-103) (complex) |
| – | 800 nM | 1 | H2A-H2B histone dimer from Drosophila melanogaster (from UniProt P84051 2-121; P02283 2-123) (complex) |
